Experimental data from the supplement of paper PMC9112550, “Optimization of the antimicrobial peptide Bac7 by deep mutational scanning” (BMC Biology, 2022).

Tested on: Escherichia coli TOP10
Assay: shrunken log2 fold change of peptide-encoding DNA abundance (4.5 h post-induction vs induction); higher = less antimicrobial activity (less host growth inhibition)
Settings: time post-induction: 4.5 h; library: site-saturation at positions 5, 18, 19, 20
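Also: peptides expressed intracellularly from a pBAD plasmid library in pooled LB shake-flask culture, induced with 0.3% L-arabinose, DNA abundance read by NGS, three biological replicates, DESeq2 with apeglm shrinkage.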

Point of comparison: RRIRFRPPRLPRPRPRPWSCPRP, “shrunken log2 fold change” value -0.175. Against it:
- RRIRKRPPRLPRPRPRPAQRPRP — higher, 0.946
- RRIRDRPPRLPRPRPRPSHLPRP — within 0.2 log units, -0.248
- RRIRQRPPRLPRPRPRPKAQPRP — within 0.2 log units, 0.0112
- RRIRLRPPRLPRPRPRPEITPRP — within 0.2 log units, -0.11
- RRIRTRPPRLPRPRPRPCQCPRP — within 0.2 log units, -0.195
- RRIRNRPPRLPRPRPRPHQMPRP — within 0.2 log units, -0.114
- RRIRPRPPRLPRPRPRPTRIPRP — higher, 0.105
- RRIRKRPPRLPRPRPRPDVCPRP — within 0.2 log units, -0.0122
- RRIRGRPPRLPRPRPRPEKWPRP — within 0.2 log units, -0.0809
- RRIRDRPPRLPRPRPRPPPRPRP — higher, 1.1
- RRIRVRPPRLPRPRPRPYMAPRP — lower, -0.629
- RRIRYRPPRLPRPRPRPKMHPRP — lower, -0.561
- RRIRNRPPRLPRPRPRPMVGPRP — within 0.2 log units, -0.0679
- RRIRHRPPRLPRPRPRPRGHPRP — within 0.2 log units, -0.103
- RRIRMRPPRLPRPRPRPIMYPRP — within 0.2 log units, -0.171
- RRIRPRPPRLPRPRPRPYHYPRP — lower, -0.84
- RRIRYRPPRLPRPRPRPSGAPRP — within 0.2 log units, -0.299
- RRIRFRPPRLPRPRPRPEKPPRP — within 0.2 log units, -0.0143
- RRIRCRPPRLPRPRPRPLMLPRP — lower, -0.646
- RRIRRRPPRLPRPRPRPRQRPRP — higher, 0.636
- RRIRVRPPRLPRPRPRPDHQPRP — within 0.2 log units, -0.00679
- RRIRFRPPRLPRPRPRPPGYPRP — higher, 0.0848
- RRIRSRPPRLPRPRPRPFDRPRP — within 0.2 log units, -0.118
- RRIRSRPPRLPRPRPRPARCPRP — higher, 0.114
- RRIRHRPPRLPRPRPRPAYSPRP — within 0.2 log units, -0.000852
- RRIRFRPPRLPRPRPRPHYIPRP — within 0.2 log units, -0.0793
- RRIRFRPPRLPRPRPRPPCEPRP — higher, 0.409
- RRIRVRPPRLPRPRPRPGSTPRP — within 0.2 log units, -0.311
- RRIRVRPPRLPRPRPRPQCDPRP — within 0.2 log units, -0.0528
- RRIRRRPPRLPRPRPRPEVEPRP — within 0.2 log units, 0.0165
- RRIRLRPPRLPRPRPRPSNAPRP — within 0.2 log units, -0.204
- RRIRLRPPRLPRPRPRPSKLPRP — lower, -0.388
- RRIRQRPPRLPRPRPRPSNVPRP — within 0.2 log units, -0.0428
- RRIRIRPPRLPRPRPRPHSAPRP — within 0.2 log units, -0.143
- RRIRKRPPRLPRPRPRPAAKPRP — within 0.2 log units, 0.0103
- RRIRTRPPRLPRPRPRPDRGPRP — within 0.2 log units, -0.252
- RRIRHRPPRLPRPRPRPPRTPRP — higher, 1.03
- RRIRVRPPRLPRPRPRPTGFPRP — within 0.2 log units, 0.0174
- RRIRHRPPRLPRPRPRPYICPRP — within 0.2 log units, -0.153
- RRIRHRPPRLPRPRPRPHREPRP — within 0.2 log units, 0.00911
- RRIRRRPPRLPRPRPRPVEHPRP — higher, 0.0989
- RRIRCRPPRLPRPRPRPIWLPRP — higher, 0.122
- RRIRHRPPRLPRPRPRPCDEPRP — within 0.2 log units, -0.0443
- RRIRDRPPRLPRPRPRPCSRPRP — within 0.2 log units, 0.0202
- RRIRWRPPRLPRPRPRPWTDPRP — within 0.2 log units, -0.0932
- RRIRYRPPRLPRPRPRPTAYPRP — lower, -0.537
- RRIRHRPPRLPRPRPRPNWEPRP — within 0.2 log units, -0.0833
- RRIRCRPPRLPRPRPRPFGQPRP — lower, -0.442
- RRIRGRPPRLPRPRPRPFPMPRP — higher, 0.533
- RRIRYRPPRLPRPRPRPQMPPRP — within 0.2 log units, -0.205
- RRIRKRPPRLPRPRPRPNHSPRP — within 0.2 log units, -0.321
- RRIRDRPPRLPRPRPRPIPCPRP — within 0.2 log units, -0.0802
- RRIRRRPPRLPRPRPRPVFTPRP — higher, 0.188
- RRIRFRPPRLPRPRPRPIYQPRP — within 0.2 log units, -0.21
- RRIRPRPPRLPRPRPRPALGPRP — higher, 0.964
- RRIRMRPPRLPRPRPRPKTRPRP — higher, 0.994
- RRIRNRPPRLPRPRPRPAAAPRP — higher, 0.43
- RRIRHRPPRLPRPRPRPRYWPRP — higher, 0.319
- RRIRYRPPRLPRPRPRPLFAPRP — lower, -0.492
- RRIRMRPPRLPRPRPRPNSIPRP — within 0.2 log units, -0.283
- RRIRRRPPRLPRPRPRPWWMPRP — higher, 0.386
- RRIRPRPPRLPRPRPRPIHDPRP — within 0.2 log units, -0.0217
- RRIRKRPPRLPRPRPRPIYVPRP — higher, 0.0461
- RRIRERPPRLPRPRPRPWVIPRP — higher, 0.0392
- RRIRPRPPRLPRPRPRPRATPRP — higher, 0.261
- RRIRHRPPRLPRPRPRPETQPRP — within 0.2 log units, -0.137
- RRIRYRPPRLPRPRPRPMANPRP — within 0.2 log units, -0.223
- RRIRNRPPRLPRPRPRPGQDPRP — within 0.2 log units, -0.0269
- RRIRARPPRLPRPRPRPGTGPRP — higher, 0.158
- RRIRGRPPRLPRPRPRPQFFPRP — within 0.2 log units, -0.0486
- RRIRQRPPRLPRPRPRPAGAPRP — higher, 0.666
- RRIRERPPRLPRPRPRPWRCPRP — within 0.2 log units, -0.0332
- RRIRRRPPRLPRPRPRPSRVPRP — higher, 0.553
- RRIRDRPPRLPRPRPRPVRNPRP — higher, 0.282
- RRIRIRPPRLPRPRPRPKAQPRP — within 0.2 log units, -0.0442
- RRIRGRPPRLPRPRPRPGYAPRP — higher, 0.222
- RRIRHRPPRLPRPRPRPNAQPRP — within 0.2 log units, -0.00277
- RRIRERPPRLPRPRPRPIPHPRP — within 0.2 log units, -0.19
- RRIRNRPPRLPRPRPRPTSSPRP — higher, 0.211
- RRIRARPPRLPRPRPRPYNGPRP — within 0.2 log units, -0.0341
- RRIRMRPPRLPRPRPRPWLKPRP — within 0.2 log units, -0.11
- RRIRARPPRLPRPRPRPLLTPRP — higher, 0.667
- RRIRMRPPRLPRPRPRPYFQPRP — lower, -0.759
- RRIRLRPPRLPRPRPRPKRWPRP — higher, 0.356
- RRIRRRPPRLPRPRPRPYNLPRP — within 0.2 log units, -0.233
- RRIRKRPPRLPRPRPRPCHHPRP — lower, -0.411
- RRIRTRPPRLPRPRPRPRNYPRP — within 0.2 log units, -0.0303
- RRIRARPPRLPRPRPRPMVVPRP — within 0.2 log units, -0.0787
- RRIRGRPPRLPRPRPRPRQSPRP — higher, 0.647
- RRIRARPPRLPRPRPRPERKPRP — higher, 1.16
- RRIRERPPRLPRPRPRPLDDPRP — within 0.2 log units, -0.234
- RRIRFRPPRLPRPRPRPIRGPRP — within 0.2 log units, -0.0057
- RRIRARPPRLPRPRPRPHQWPRP — higher, 0.137
- RRIRARPPRLPRPRPRPDMWPRP — higher, 0.422
- RRIRLRPPRLPRPRPRPRGFPRP — higher, 0.124
- RRIRDRPPRLPRPRPRPEDVPRP — within 0.2 log units, -0.0018
- RRIRSRPPRLPRPRPRPTDAPRP — higher, 0.236
- RRIRARPPRLPRPRPRPFQHPRP — within 0.2 log units, -0.162
- RRIRTRPPRLPRPRPRPTRMPRP — higher, 0.196
- RRIRHRPPRLPRPRPRPVGCPRP — higher, 0.0698
- RRIRQRPPRLPRPRPRPMDTPRP — within 0.2 log units, -0.031
- RRIRMRPPRLPRPRPRPNRDPRP — within 0.2 log units, 0.00277
- RRIRHRPPRLPRPRPRPSPLPRP — within 0.2 log units, -0.223
- RRIRDRPPRLPRPRPRPMCTPRP — within 0.2 log units, -0.0135
- RRIRDRPPRLPRPRPRPVMAPRP — higher, 0.774
- RRIRMRPPRLPRPRPRPRVAPRP — higher, 0.699
- RRIRYRPPRLPRPRPRPRNFPRP — within 0.2 log units, -0.358
- RRIRFRPPRLPRPRPRPLEQPRP — higher, 0.0789
- RRIRNRPPRLPRPRPRPMQPPRP — within 0.2 log units, -0.000687
- RRIRARPPRLPRPRPRPWDAPRP — higher, 0.108
- RRIRRRPPRLPRPRPRPDKCPRP — within 0.2 log units, -0.0562
- RRIRSRPPRLPRPRPRPQHNPRP — lower, -0.628
- RRIRSRPPRLPRPRPRPNYEPRP — lower, -0.609
- RRIRYRPPRLPRPRPRPLNMPRP — lower, -1.33
- RRIRQRPPRLPRPRPRPWPKPRP — higher, 0.097
- RRIRIRPPRLPRPRPRPITIPRP — lower, -0.436
- RRIRWRPPRLPRPRPRPWWMPRP — higher, 0.388
- RRIRNRPPRLPRPRPRPHSKPRP — within 0.2 log units, -0.117
- RRIRKRPPRLPRPRPRPYVSPRP — lower, -0.438
- RRIRDRPPRLPRPRPRPWAYPRP — higher, 0.0388
- RRIRPRPPRLPRPRPRPLRFPRP — higher, 0.431
- RRIRARPPRLPRPRPRPAEKPRP — within 0.2 log units, -0.0197
- RRIRDRPPRLPRPRPRPRCQPRP — within 0.2 log units, -0.128
- RRIRTRPPRLPRPRPRPITVPRP — within 0.2 log units, -0.154
- RRIRNRPPRLPRPRPRPIIGPRP — higher, 0.0444
- RRIRLRPPRLPRPRPRPTSHPRP — within 0.2 log units, -0.0914
- RRIRARPPRLPRPRPRPGIYPRP — within 0.2 log units, -0.225
- RRIRYRPPRLPRPRPRPHMSPRP — lower, -0.452
- RRIRVRPPRLPRPRPRPTITPRP — within 0.2 log units, -0.178
- RRIRERPPRLPRPRPRPEGFPRP — within 0.2 log units, -0.00351
- RRIRIRPPRLPRPRPRPRHCPRP — higher, 0.0849
- RRIRLRPPRLPRPRPRPRNCPRP — lower, -0.51
- RRIRCRPPRLPRPRPRPKVKPRP — within 0.2 log units, -0.133
- RRIRSRPPRLPRPRPRPTICPRP — within 0.2 log units, -0.126
- RRIRIRPPRLPRPRPRPLQCPRP — higher, 0.0339
- RRIRTRPPRLPRPRPRPEQYPRP — within 0.2 log units, -0.0335
- RRIRSRPPRLPRPRPRPYEIPRP — within 0.2 log units, -0.0474
- RRIRYRPPRLPRPRPRPSGSPRP — within 0.2 log units, -0.0607
- RRIRIRPPRLPRPRPRPSPQPRP — lower, -0.512
- RRIRHRPPRLPRPRPRPSMGPRP — within 0.2 log units, -0.149
- RRIRLRPPRLPRPRPRPPNEPRP — within 0.2 log units, -0.0407
- RRIRDRPPRLPRPRPRPDWWPRP — higher, 0.0503
- RRIRCRPPRLPRPRPRPACAPRP — higher, 0.433
- RRIRVRPPRLPRPRPRPNWLPRP — within 0.2 log units, -0.105
- RRIRKRPPRLPRPRPRPQTFPRP — higher, 0.117
- RRIRHRPPRLPRPRPRPNMQPRP — within 0.2 log units, -0.0674
- RRIRERPPRLPRPRPRPYPKPRP — lower, -0.405
- RRIRIRPPRLPRPRPRPTTVPRP — within 0.2 log units, -0.319
- RRIRVRPPRLPRPRPRPMHNPRP — within 0.2 log units, -0.268
